Experimental data reported in US7041457B2, “Gαq protein variants and their use in the analysis and discovery of agonists and antagonists of chemosensory receptors” (Senomyx, Inc., priority 2000, dated 2006).

T1: mouse olfactory receptor 17 (Mus musculus, UniProt Q9QWU6)
T1 construct: expressed in transfected cells
T1 sequence (Q9QWU6 1-327): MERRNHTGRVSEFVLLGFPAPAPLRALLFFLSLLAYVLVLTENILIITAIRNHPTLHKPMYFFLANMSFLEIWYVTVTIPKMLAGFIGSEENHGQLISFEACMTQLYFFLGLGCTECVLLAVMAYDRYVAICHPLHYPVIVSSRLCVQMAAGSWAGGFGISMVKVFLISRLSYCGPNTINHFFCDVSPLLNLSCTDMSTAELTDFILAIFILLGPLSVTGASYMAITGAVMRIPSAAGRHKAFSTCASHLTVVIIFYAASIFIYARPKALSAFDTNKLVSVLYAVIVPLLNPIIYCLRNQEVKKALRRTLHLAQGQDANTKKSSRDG

T2: bitter receptor mT2R5 (Mus musculus, UniProt Q9JKT4)
T2 construct: expressed in transfected cells
T2 sequence (Q9JKT4 1-300): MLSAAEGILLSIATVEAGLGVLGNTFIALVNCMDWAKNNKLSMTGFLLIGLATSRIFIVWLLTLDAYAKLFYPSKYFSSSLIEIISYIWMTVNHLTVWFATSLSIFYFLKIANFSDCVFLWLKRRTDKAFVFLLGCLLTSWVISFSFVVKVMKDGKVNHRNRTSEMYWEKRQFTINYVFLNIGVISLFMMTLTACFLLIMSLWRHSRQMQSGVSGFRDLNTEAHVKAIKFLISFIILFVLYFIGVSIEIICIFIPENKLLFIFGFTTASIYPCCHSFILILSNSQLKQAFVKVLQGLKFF


Target: T1, mouse olfactory receptor 17
Assay: Functional coupling of Gq variants with mouse olfactory receptor 17 (mammalian cell-based systems and Xenopus oocytes, calcium imaging)
Parameters: key to the marks not given beside the values
Source text: (§1) The present invention addresses the above described problems associated with using Gα15/α16, as well as other problems known in the art relating to the use of weakly promiscuous Gα proteins. […] According to the invention, the functional coupling can be determined, for example, by measuring changes in intracellular IP3 or calcium. In a particular embodiment, the Gq protein variants can be expressed in mammalian cell lines or Xenopus oocytes, and then evaluated using calcium fluorescence imaging and electrophysiological recording.
It was found by functional analysis using single-cell calcium imaging that activation of multi-family GPCRs evoked increases in cytosolic calcium in the presence of the Gαq variants with the G66D mutation. These GPCRs include Gαs-coupled β-adrenergic receptor, Gαolf-coupled mouse 17 olfactory receptor, Gαi-coupled m2 muscarinic receptor, and gustducin-coupled bitter receptor mT2R5. No significant change in cytosolic calcium could be detected by activation of the above GPCRs in the absence of the Gαq variants. Additional GPCRs can include those disclosed in U.S. patent application Ser. No. 09/510,332 filed Feb. 22, 2000 now abandoned; and U.S. Provisional Application Nos. 60/213,849 filed Jun. 23, 2000; 60/209,840 filed Jun. 6, 2000; 60/195,536 filed Apr. 7, 2000; 60/195,534 filed Apr. 7, 2000; 60/195,532 filed Apr. […]

Functional Activity with Olfactory Receptor ml7	Molecule
++	MGq (ΔN-HVD-HA)-olf5: mouse Gαq ΔN-HVD-HA with C-terminal five amino acids of Gαolf, SEQ ID NO:14 (protein, listed as Mus sp., HA tag; Gαolf C-terminal five residues) MACCLSEEAKEARRINDEIERHVRRDKRDARRELKLLLLGTGESGKSTFIKQMRIIHGSDYSDEDKRGFTKLVYQNIFTAMQAMIRAMDTLKIPYKYEHNKAHAQLVREVDVEKVSAFDVPDYAAIKSLWNDPGIQECYDRRREYQLSDSTKYYLNDLDRVADPSYLPTQQDVLRVRVPTTGIIEYPFDLQSVIFRMVDVGGQRSERRKWIHCFENVTSIMFLVALSEYDQVLVESDNENRMEESKALFRTIITYPWFQNSSVILFLNKKDLLEEKIMYSHLVDYFPEYDGPQRDAQAAREFILKMFVDLNPDSDKIIYSHFTCATDTENIRFVFAAVKDTILQLNLKQYELL

Target: T2, bitter receptor mT2R5
Assay: Functional coupling of Gq variants with bitter taste receptor mT2R5 (mammalian cell-based systems and Xenopus oocytes, calcium imaging)
Source text: as §1
It was found by functional analysis using single-cell calcium imaging that activation of multi-family GPCRs evoked increases in cytosolic calcium in the presence of the Gαq variants with the G66D mutation. These GPCRs include Gαs-coupled β-adrenergic receptor, Gαolf-coupled mouse 17 olfactory receptor, Gαi-coupled m2 muscarinic receptor, and gustducin-coupled bitter receptor mT2R5. No significant change in cytosolic calcium could be detected by activation of the above GPCRs in the absence of the Gαq variants. Additional GPCRs can include those disclosed in U.S. patent application Ser. No. 09/510,332 filed Feb. 22, 2000 now abandoned; and U.S. Provisional Application Nos. 60/213,849 filed Jun. 23, 2000; 60/209,840 filed Jun. 6, 2000; 60/195,536 filed Apr. 7, 2000; 60/195,534 filed Apr. 7, 2000; 60/195,532 filed Apr. 7, 2000; which are herein incorporated by references for all purposes in a manner consistent with this disclosure.
A series of Gαq protein variants having the sequences listed in FIG. 3 were constructed and tested in mammalian cell-based systems and in Xenopus oocytes for functional coupling efficiency with bitter receptor mT2R5 and mouse olfactory receptor 17.

Functional Activity With Taste Receptor MT2R5	Molecule
++	MGq (ΔN-HVD-HA)-t5: mouse Gαq ΔN-HVD-HA with C-terminal five amino acids replaced by those of transducin, SEQ ID NO:6 (protein, listed as Mus sp., HA tag; transducin C-terminal five residues) MACCLSEEAKEARRINDEIERHVRRDKRDARRELKLLLLGTGESGKSTFIKQMRIIHGSGYSDEDKRGFTKLVYQNIFTAMQAMIRAMDTLKIPYKYEHNKAHAQLVREVDVEKVSAFDVPDYAAIKSLWNDPGIQECYDRRREYQLSDSTKYYLNDLDRVADPSYLPTQQDVLRVRVPTTGIIEYPFDLQSVIFRMVDVGGQRSERRKWIHCFENVTSIMFLVALSEYDQVLVESDNENRMEESKALFRTIITYPWFQNSSVILFLNKKDLLEEKIMYSHLVDYFPEYDGPQRDAQAAREFILKMFVDLNPDSDKIIYSHFTCATDTENIRFVFAAVKDTILQLNLKDCGLF
++	MGq (ΔN-HVD-HA)-t44: mouse Gαq ΔN-HVD-HA with C-terminal 44 amino acids of transducin, SEQ ID NO:7 (protein, listed as Mus sp., HA tag; transducin C-terminal 44 residues) MACCLSEEAKEARRINDEIERHVRRDKRDARRELKLLLLGTGESGKSTFIKQMRIIHGSGYSDEDKRGFTKLVYQNIFTAMQAMIRAMDTLKIPYKYEHNKAHAQLVREVDVEKVSAFDVPDYAAIKSLWNDPGIQECYDRRREYQLSDSTKYYLNDLDRVADPSYLPTQQDVLRVRVPTTGIIEYPFDLQSVIFRMVDVGGQRSERRKWIHCFENVTSIMFLVALSEYDQVLVESDNENRMEESKALFRTIITYPWFQNSSVILFLNKKDLLEEKIMYSHLVDYFPEYDGPQRDAQAAREFILKMFVDLNPDNMRRDVKEIYSHMTCATDTQNVKFVFDAVTDIIIKENLKDCGLF

Further lines, the molecule ahead of its results:

Molecule	Functional Activity With Taste Receptor MT2R5
HGq: human Gαq protein, SEQ ID NO:15 (protein, listed as Homo sapiens) MTLESIMACCLSEEAKEARRINDEIERQLRRDKRDARRELKLLLLGTGESGKSTFIKQMRIIHGSGYSDEDKRGFTKLVYQNIFTAMQAMIRAMDTLKIPYKYEHNKAHAQLVREVDVEKVSAFENPYVDAIKSLWNDPGIQECYDRRREYQLSDSTKYYLNDLDRVADPAYLPTQQDVLRVRVPTTGIIEYPFDLQSVIFRMVDVGGQRSERRKWIHCFENVTSIMFLVALSEYDQVLVESDNENRMEESKALFRTIITYPWFQNSSVILFLNKKDLLEEKIMYSHLVDYFPEYDGPQRDAQAAREFILKMFVDLNPDSDKINYSHFTCATDTENIRFVFAAVKDTILQLNLKEYNAV	−
MGq (HV-HA)-t5: mouse Gαq HV-HA with C-terminal five amino acids of transducin, SEQ ID NO:12 (protein, listed as Mus sp., HA tag; transducin C-terminal five residues) MTLESIMACCLSEEAKEARRINDEIERHVRRDKRDARRELKLLLLGTGESGKSTFIKQMRIIHGSGYSDEDKRGFTKLVYQNIFTAMQAMIRAMDTLKIPYKYEHNKAHAQLVREVDVEKVSAFDVPDYAAIKSLWNDPGIQECYDRRREYQLSDSTKYYLNDLDRVADPSYLPTQQDVLRVRVPTTGIIEYPFDLQSVIFRMVDVGGQRSERRKWIHCFENVTSIMFLVALSEYDQVLVESDNENRMEESKALFRTIITYPWFQNSSVILFLNKKDLLEEKIMYSHLVDYFPEYDGPQRDAQAAREFILKMFVDLNPDSDKIIYSHFTCATDTENIRFVFAAVKDTILQLNLKDCGLF	+
MGq (HVD-HA)-t5: mouse Gαq HVD-HA with C-terminal five amino acids of transducin, SEQ ID NO:13 (protein, listed as Mus sp., HA tag; transducin C-terminal five residues) MTLESIMACCLSEEAKEARRINDEIERHVRRDKRDARRELKLLLLGTGESGKSTFIKQMRIIHGSDYSDEDKRGFTKLVYQNIFTAMQAMIRAMDTLKIPYKYEHNKAHAQLVREVDVEKVSAFDVPDYAAIKSLWNDPGIQECYDRRREYQLSDSTKYYLNDLDRVADPSYLPTQQDVLRVRVPTTGIIEYPFDLQSVIFRMVDVGGQRSERRKWIHCFENVTSIMFLVALSEYDQVLVESDNENRMEESKALFRTIITYPWFQNSSVILFLNKKDLLEEKIMYSHLVDYFPEYDGPQRDAQAAREFILKMFVDLNPDSDKIIYSHFTCATDTENIRFVFAAVKDTILQLNLKDCGLF	++
HGq (ΔN): human Gαq with truncation of N-terminal six amino acids, SEQ ID NO:16 (protein, listed as Homo sapiens) MACCLSEEAKEARRINDEIERQLRRDKRDARRELKLLLLGTGESGKSTFIKQMRIIHGSGYSDEDKRGFTKLVYQNIFTAMQAMIRAMDTLKIPYKYEHNKAHAQLVREVDVEKVSAFENPYVDAIKSLWNDPGIQECYDRRREYQLSDSTKYYLNDLDRVADPAYLPTQQDVLRVRVPTTGIIEYPFDLQSVIFRMVDVGGQRSERRKWIHCFENVTSIMFLVALSEYDQVLVESDNENRMEESKALFRTIITYPWFQNSSVILFLNKKDLLEEKIMYSHLVDYFPEYDGPQRDAQAAREFILKMFVDLNPDSDKIIYSHFTCATDTENIRFVFAAVKDTILQLNLKEYNAV	−
